Results on two substances are retold here after publication PMC11238991.

The target in assay [1] is cleaved-αA (human αA-crystallin made as his-SUMO fusion, tag removed by ulp-1) (human) (UniProt P02489). Briefly: SEC; analytical; 2.0 mg/mL of each variant on Superose 6 Increase in 20 mM Tris-HCl pH 7.8, 150 mM NaCl, 0.25 mL/min; molar mass from protein standards, number of subunits predicted from it; three experiments.
Assay [2] has as its target recombinant human αA-crystallin (αA) (human) (UniProt P02489). Described as above.

Sequence of recombinant human αA-crystallin (αA) (P02489 whole entry): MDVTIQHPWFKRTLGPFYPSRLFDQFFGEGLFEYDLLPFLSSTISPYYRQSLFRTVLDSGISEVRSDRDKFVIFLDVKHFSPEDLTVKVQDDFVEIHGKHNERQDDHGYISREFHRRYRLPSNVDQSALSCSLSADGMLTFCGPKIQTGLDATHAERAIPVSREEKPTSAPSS
Sequence of cleaved-αA (human αA-crystallin made as his-SUMO fusion, tag removed by ulp-1) (P02489 whole entry, the tested form may be a part): as the sequence (P02489 whole entry) above

“cleaved-αA (human αA-crystallin made as his-SUMO fusion, tag removed by ulp-1) (from UniProt P02489 1-173) (natural protein)”: the stoichiometry N in assay [1] is 13 to 22 subunits.
Consider “recombinant human αA-crystallin (αA) (from UniProt P02489 1-173) (natural protein)”, for which the stoichiometry N in assay [2] is 27 to 32 subunits.

What is called stoichiometry N is the number of molecules, sites or subunits per partner or assembly.
